For assay [1], the target named is T1, human CD33 on cells (human, UniProt P20138 18-364). Put plainly: cell-based or functional assay.
Assay [2] has as its target T1, human CD33 on cells. The assay is described as follows: flow cytometry, titration on KG-1 cells. (In general: In flow cytometry, cells or beads pass a laser one at a time.)
Assay [3] concerns the target T1, human CD33 on cells. Put plainly: flow cytometry, titration on HL-60 cells.
Assay [4] addresses T1, human CD33 on cells. Put plainly: flow cytometry, titration on U-937 cells.
Assay [5] has as its target T2, human CD3 on T cells (human, UniProt P07766 23-207).
T2 construct: whole, on cells; also called hu CD3; CD3 on Jurkat cells
The assay is described as follows: flow cytometry, titration on human CD3+ T cells (Jurkat per paragraph 124/paragraph 125).

Assay [6] concerns the target cynomolgus CD33 on CHO cells (cynomolgus monkey). Put plainly: flow cytometry; KD on CHO-cynomolgus CD33 cells divided by KD on CHO-human CD33 cells.
The target in assay [7] is T2, human CD3 on T cells. Put plainly: cell-based or functional assay.
Assay [8] concerns the target T1, human CD33 on cells. Put plainly: flow cytometry, HL-60 cells.
For assay [9], the target named is T2, human CD3 on T cells. Put plainly: flow cytometry, human T-cells (as headed in Table 10).

T2 sequence (P07766 23-207): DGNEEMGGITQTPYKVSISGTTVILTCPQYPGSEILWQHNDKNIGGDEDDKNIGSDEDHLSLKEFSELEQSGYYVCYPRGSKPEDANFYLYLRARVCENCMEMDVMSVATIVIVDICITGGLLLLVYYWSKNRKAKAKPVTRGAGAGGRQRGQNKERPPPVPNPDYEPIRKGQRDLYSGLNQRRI
T1 sequence (P20138 18-364): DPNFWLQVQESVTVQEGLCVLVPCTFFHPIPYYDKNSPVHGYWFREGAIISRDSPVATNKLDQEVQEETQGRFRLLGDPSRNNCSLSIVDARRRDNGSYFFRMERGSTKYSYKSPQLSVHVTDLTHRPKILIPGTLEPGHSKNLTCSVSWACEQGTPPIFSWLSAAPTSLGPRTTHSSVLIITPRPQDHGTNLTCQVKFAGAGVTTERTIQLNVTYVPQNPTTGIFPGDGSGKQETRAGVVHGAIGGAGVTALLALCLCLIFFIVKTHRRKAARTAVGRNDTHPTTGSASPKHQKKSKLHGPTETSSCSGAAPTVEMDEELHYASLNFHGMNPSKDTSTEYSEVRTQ

B1: CD33/CD3 tandem diabody 08 (bispecific antibody)
chain: QSVLTQPPSASGTPGQRVTISCSGSRSNIGSNTVNWYQQLPGTAPKLLIYGNNQRPSGVPDRFSGSKSGSSASLAISGLQSEDEADYYCATWDDSLIGWVFGGGTKLTVLGGSGGSEVQLVESGGGLVQPGGSLRLSCAASGFTFSTYAMNWVRQAPGKGLEWVGRIRSKYNNYATYYADSVKDRFTISRDDSKNSLYLQMNSLKTEDTAVYYCARHGNFGNSYVSYFAYWGQGTLVTVSSGGSGGSDIQMTQSPSSLSASVGDRVTITCRSSTGAVTTSNYANWVQQKPGKAPKALIGGTNKRAPGVPSRFSGSLIGDKATLTISSLQPEDFATYYCALWYSNLWVFGQGTKVEIKGGSGGSQVQLVQSGAEVKKPGASVKVSCKASGYTFTSYDINWVRQAPGQGLEWMGWMNPNSGNTGFAQKFQGRVTMTRDTSTSTVYMELSSLRSEDTAVYYCARDRANTDFSYGMDVWGQGTLVTVSSAAAGSHHHHHH
notes: Non-covalent homodimer; domain order 3 VL(CD33)-L1-VH(CD3)-L2-VL(CD3)-L3-VH(CD33); also called TandAb 08; tandem diabody 8
As for B1, the “EC50 on HL-60 [pM] (cytotoxicity)” value in assay [1] is 1.8 pM. The dissociation constant (Kd) in assay [2] came out at 0.5 nM; in assay [3], 0.3 nM; in [4], 1.8 nM; in assay [5] it was 2.4 nM. Moreover, the KD ratio cynoCD33/ huCD33 in assay [6] turned out to be 0.6.

B2: CD33/CD3 tandem diabody 10 (bispecific antibody)
chain: DIQMTQSPSSLSASVGDRVTITCRSSTGAVTTSNYANWVQQKPGKAPKGLIGGTNKRAPGVPSRFSGSLIGDKATLTISSLQPEDFATYYCALWYSNLWVFGQGTKVEIKGGSGGSQVQLVQSGAEVKKPGASVKVSCKASGYTFTSYDINWVRQAPGQGLEWMGWMNPNSGNTGFAQKFQGRVTMTRDTSTSTVYMELSSLRSEDTAVYYCARDRANTDYSFGMDVWGQGTLVTVSSGGSGQSVLTQPPSASGTPGQRVTISCSGSRSNIGSNTVNWYQQLPGTAPKLLIYGNNQRPSGVPDRFSGSKSGTSASLAISGLQSEDEADYYCATWDDSLIGWVFGGGTKLTVLGGSGGSEVQLVESGGGLVQPGGSLRLSCAASGFTFSTYAMNWVRQAPGKGLEWVGRIRSKYNNYATYYADSVKDRFTISRDDSKNSLYLQMNSLKTEDTAVYYCARHGNFGNSYVSWFAYWGQGTLVTVSSAAAGSHHHHHH
notes: Non-covalent homodimer; domain order 1; also called TandAb 10
For the molecule B2, the “EC50 on HL-60 [pM] (cytotoxicity)” value in [1] came to 7 pM. Further, the “CD25 Induction EC50 (pM)” value in assay [7] turned out to be 10 pM. Besides, the “CD69 Induction EC50 (pM)” value in assay [7] worked out at 6 pM. The “T cell Proliferation in PBMC EC50 (pM)” value in [7] was 6 pM. Moreover, the Kd is 0.5 nM in assay [8]; 1 nM in assay [2]; 0.5 nM in [3]; 1.7 nM in assay [4]; 1.9 nM in assay [9]; 1.9 nM in assay [5]. Further, the KD ratio cynoCD33/ huCD33 in [6] is 0.8.

B3: CD33/CD3 tandem diabody 02 (bispecific antibody)
chain: DIQMTQSPSSLSASVGDRVTITCRSSTGAVTTSNYANWVQQKPGKAPKGLIGGTNKRAPGVPARFSGSGSGTDFTLTISSLQPEDFATYYCALWYSNLWVFGQGTKVEIKGGSGGSQVQLVQSGAEVKKPGASVKVSCKASGYTFTSYDINWVRQAPGQGLEWMGWMNPNSGNTGFAQKFQGRVTMTRDTSTSTVYMELSSLRSEDTAVYYCARDRAVTDYYYGMDVWGQGTLVTVSSGGSGQSVLTQPPSASGTPGQRVTISCSGSRSNIGSNTVNWYQQLPGTAPKLLIYGNNQRPSGVPDRFSGSKSGTSASLAISGLQSEDEADYYCATWDDSLIGWVFGGGTKLTVLGGSGGSEVQLVESGGGLVQPGGSLRLSCAASGFTFSTYAMNWVRQAPGKGLEWVGRIRSKYNNYATYYADSVKDRFTISRDDSKNSLYLQMNSLKTEDTAVYYCARHGNFGNSYVSWFAYWGQGTLVTVSSAAAGSHHHHHH
notes: Non-covalent homodimer; domain order 1; also called TandAb 02; tandem diabody 2
For the molecule B3, in [1], the “EC50 on HL-60 [pM] (cytotoxicity)” value amounted to 0.5 pM. Moreover, the “CD25 Induction EC50 (pM)” value in [7] turned out to be 42 pM. In addition, the “CD69 Induction EC50 (pM)” value in assay [7] came out at 27 pM. The “T cell Proliferation in PBMC EC50 (pM)” value in assay [7] is 4 pM. Also, the dissociation constant (Kd) turned out to be 0.2 nM in assay [8]; 0.3 nM in assay [2]; 0.2 nM in assay [3]; 0.9 nM in [4]; 69.8 nM in assay [9]; 69.8 nM in [5]. The KD ratio cynoCD33/ huCD33 in [6] is 1.1.

B4: CD33/CD3 tandem diabody 01 (bispecific antibody)
chain: DIQMTQSPSSLSASVGDRVTITCRSSTGAVTTSNYANWVQQKPGKAPKGLIGGTNKRAPGVPARFSGSGSGTDFTLTISSLQPEDFATYYCALWYSNLWVFGQGTKVEIKGGSGGSQVQLVQSGAEVKKPGASVKVSCKASGYTFTSYDINWVRQAPGQGLEWMGWMNPNSGNTGFAQKFQGRVTMTRDTSTSTVYMELSSLRSEDTAVYYCARDRANTDFSYGMDVWGQGTLVTVSSGGSGQSVLTQPPSASGTPGQRVTISCSGSRSNIGSNTVNWYQQLPGTAPKLLIYGNNQRPSGVPDRFSGSKSGSSASLAISGLQSEDEADYYCATWDDSLIGWVFGGGTKLTVLGGSGGSEVQLVESGGGLVQPGGSLRLSCAASGFTFSTYAMNWVRQAPGKGLEWVGRIRSKYNNYATYYADSVKDRFTISRDDSKNSLYLQMNSLKTEDTAVYYCARHGNFGNSYVSWFAYWGQGTLVTVSSAAAGSHHHHHH
notes: Non-covalent homodimer; domain order 1 VL(CD3)-L1-VH(CD33)-L2-VL(CD33)-L3-VH(CD3); also called TandAb 01; tandem diabody 1
As for B4, in assay [1], the “EC50 on HL-60 [pM] (cytotoxicity)” value was 1.9 pM. In [7], the “CD25 Induction EC50 (pM)” value was 92 pM. Besides, in [7], the “CD69 Induction EC50 (pM)” value is 91 pM. Moreover, in assay [7], the “T cell Proliferation in PBMC EC50 (pM)” value stood at 89 pM. Moreover, the Kd in [8] worked out at 0.6 nM; in [2] it was 0.9 nM; in assay [3] it was 0.6 nM; in assay [4], 7.1 nM; in assay [9], 94.2 nM; in assay [5], 94.2 nM. Moreover, the KD ratio cynoCD33/ huCD33 in [6] stood at 0.7.

B5: CD33/CD3 tandem diabody 03 (bispecific antibody)
chain: DIQMTQSPSSLSASVGDRVTITCRSSTGAVTTSNYANWVQQKPGKAPKGLIGGTNKRAPGVPARFSGSGSGTDFTLTISSLQPEDFATYYCALWYSNLWVFGQGTKVEIKGGSGGSQVQLVQSGAEVKKPGASVKVSCKASGYTFTSYDINWVRQAPGQGLEWMGWMNPNSGNTGFAQKFQGRVTMTRDTSTSTVYMELSSLRSEDTAVYYCARDRANTDYSFGMDVWGQGTLVTVSSGGSGQSVLTQPPSASGTPGQRVTISCSGSRSNIGSNTVNWYQQLPGTAPKLLIYGNNQRPSGVPDRFSGSKSGTSASLAISGLQSEDEADYYCATWDDSLIGWVFGGGTKLTVLGGSGGSEVQLVESGGGLVQPGGSLRLSCAASGFTFSTYAMNWVRQAPGKGLEWVGRIRSKYNNYATYYADSVKDRFTISRDDSKNSLYLQMNSLKTEDTAVYYCARHGNFGNSYVSWFAYWGQGTLVTVSSAAAGSHHHHHH
notes: Non-covalent homodimer; domain order 1; also called TandAb 03; tandem diabody 3
Consider B5, for which the “EC50 on HL-60 [pM] (cytotoxicity)” value in assay [1] was 3.6 pM. The “CD25 Induction EC50 (pM)” value in assay [7] turned out to be 117 pM. In addition, in assay [7], the “CD69 Induction EC50 (pM)” value was 87 pM. The “T cell Proliferation in PBMC EC50 (pM)” value in assay [7] was determined as 63 pM. The Kd was found to be 1.1 nM in [8]; 1.8 nM in assay [2]; 1.1 nM in assay [3]; 8.9 nM in assay [4]; 81.9 nM in [9]; 81.9 nM in assay [5]. Moreover, the KD ratio cynoCD33/ huCD33 in assay [6] turned out to be 0.6.

B6: CD33/CD3 tandem diabody 04 (bispecific antibody)
chain: DIQMTQSPSSLSASVGDRVTITCRSSTGAVTTSNYANWVQQKPGKAPKGLIGGTNKRAPGVPARFSGSGSGTDFTLTISSLQPEDFATYYCALWYSNLWVFGQGTKVEIKGGSGGSQVQLVQSGAEVKKPGASVKVSCKASGYTFTSYDINWVRQAPGQGLEWMGWMNPNSGNTGFAQKFQGRVTMTRDTSTSTVYMELSSLRSEDTAVYYCARDRANTDYSLGMDVWGQGTLVTVSSGGSGQSVLTQPPSASGTPGQRVTISCSGSRSNIGSNTVNWYQQLPGTAPKLLIYGNNQRPSGVPDRFSGSKSGTSASLAISGLQSEDEADYYCATWDDSLIGWVFGGGTKLTVLGGSGGSEVQLVESGGGLVQPGGSLRLSCAASGFTFSTYAMNWVRQAPGKGLEWVGRIRSKYNNYATYYADSVKDRFTISRDDSKNSLYLQMNSLKTEDTAVYYCARHGNFGNSYVSWFAYWGQGTLVTVSSAAAGSHHHHHH
notes: Non-covalent homodimer; domain order 1; also called TandAb 04; tandem diabody 4
For B6, the “EC50 on HL-60 [pM] (cytotoxicity)” value in assay [1] worked out at 1.8 pM. Further, the “CD25 Induction EC50 (pM)” value in assay [7] came out at 94 pM. In addition, in [7], the “CD69 Induction EC50 (pM)” value stood at 62 pM. Moreover, in assay [7], the “T cell Proliferation in PBMC EC50 (pM)” value worked out at 44 pM. For the same molecule, the dissociation constant (Kd) came to 0.5 nM in assay [8]; 0.5 nM in assay [2]; 0.5 nM in assay [3]; 1.7 nM in [4]; 79.3 nM in assay [9]; 79.3 nM in assay [5]. Besides, the KD ratio cynoCD33/ huCD33 in assay [6] was 1.1.

B7: CD33/CD3 tandem diabody 18 (bispecific antibody)
chain: EVQLVESGGGLVQPGGSLRLSCAASGFTFSTYAMNWVRQAPGKGLEWVGRIRSKYNNYATYYADSVKDRFTISRDDSKNSLYLQMNSLKTEDTAVYYCARHGNFGNSYVSYFAYWGQGTLVTVSSGGSGGSQSVLTQPPSVSGAPGQRVTISCTGSSSNIGAGYDVHWYQQLPGTAPKLLIYGNSNRPSGVPDRFSGSKSGTSASLAITGLQAEDEADYYCQSYDSSLSDVVFGGGTKLTVLGGSGQVQLVQSGAEVKKPGESLKISCKGSGYSFTSYWIGWVRQMPGKGLEWMGIIYPGDSDTRYSPSFQGQVTISADKSISTAYLQWSSLKASDTAMYYCARHKRGSDAFDIWGQGTTVTVSSGGSGGSDIQMTQSPSSLSASVGDRVTITCRSSTGAVTTSNYANWVQQKPGKAPKALIGGTNKRAPGVPSRFSGSLIGDKATLTISSLQPEDFATYYCALWYSNLWVFGQGTKVEIKAAAGSHHHHHH
notes: Non-covalent homodimer; domain order 2 VH(CD3)-L1-VL(CD33)-L2-VH(CD33)-L3-VL(CD3); also called TandAb 18
For the molecule B7, the “EC50 on HL-60 [pM] (cytotoxicity)” value in assay [1] came out at 6.3 pM. Further, the dissociation constant (Kd) in assay [2] was determined as 16.3 nM; in assay [3], 3.4 nM; in assay [4] it was 15.1 nM; in assay [5], 1.9 nM. In addition, in [6], the KD ratio cynoCD33/ huCD33 amounted to 3.1.

By Kd is commonly meant the concentration at which binding is half-saturated. Lower therefore signals tighter binding.

The record behind these values is patent publication EP4813396A2 (Amphivena Therapeutics, Inc., dated 2026).
